# Measured values from patent US10660972B2, “Methods for coupling targeting peptides onto recombinant lysosomal enzymes for improved treatments of lysosomal storage diseases” (AMICUS THERAPEUTICS, INC., priority 2011, dated 2020).
# Several values for one entry are separate records, joined by “and”; a condition that tells them apart may be missing. Identical values can stand only once.
# What was measured:
# [1] = tested on: lysosomal enzyme activity (rhGAA, I2S); experiment: Enzyme activity of lysosomal enzyme after conjugation or deglycosylation; assay type: biochemical, human
# Description: (§1) The high-mannose type N-glycans on rhGAA is problematic because it is believed that these carbohydrates cause the protein to be rapidly cleared from the circulation via macrophage and splenic mannose receptors. […] Deglycosylation of rhGAA can be performed after the enzyme is modified with S-Hynic and purified (via size exclusion chromatography or dialysis to remove excess crosslinker). This strategy allows for complete deglycosylation of rhGAA over 1-5 days using EndoF or EndoH without affecting enzyme activity. The deglycosylated hydrazide-modified rhGAA is then conjugated to PEG4-benzaldehyde-modified IGF-2 peptides. Alternatively, rhGAA deglycosylation can be performed concurrently during the conjugation of PEG4-benzaldehyde-modified IGF-2 peptide to hydrazide-modified rhGAA using high concentrations of EndoF or EndoH. Deglycosylated, IGF2 peptide-conjugated rhGAA is then purified by gel filtration chromatography or dialysis to remove excess phosphine-modified IGF-2 peptides and stored in acidic pH buffer (50 mM sodium phosphate, pH 6.2/100 mM NaCl/0.05% Polysorbate-80). […]
# To assess the functional effects of IGF2 peptide for the cellular uptake of exogenous lysosomal enzymes, the internalization of IGF2-conjugated rbGAA (vIGF2-rhGAA) was evaluated in L6 rat skeletal muscle myoblasts. […]
# [2] = Solubility and stability of protein preparations in acidic buffer; assay type: physicochemical
# Description: as §1, with “Polysorbate-80). The ideal method to remove high-mannose N-glycans from yeast-derived rhGAA would be to co-express EndoH with the lysosomal enzyme for deglycoylation in vivo prior to protein purification of rhGAA.” for “Polysorbate-80).”
# IGF-2/CI-MPR = IGF-2/CI-MPR (Homo sapiens, UniProt P11717); conditions: cited from earlier work; for Kd: ligand affinity for IGF-2/CI-MPR, read-out: Binding Affinity (Apparent Kd; nM)
# Pompe disease = conditions: 40 mg/kg every other week; cited from earlier work
# insulin receptor = insulin receptor (Homo sapiens, UniProt P06213); conditions: compared to the IGF-2/CI-MPR; cited from earlier work
# IGF-1 receptor = IGF-1 receptor (Homo sapiens, UniProt P08069); conditions: compared to the IGF-2/CI-MPR; cited from earlier work
# [3] = human, in vivo; cited from earlier work
# [4] = tested on: serum IGF binding proteins (IGFBPs); experiment: Binding to serum IGF binding proteins, inferred from uptake in serum-containing medium; assay type: cell-based; conditions: inferred from internalization in medium with 10% FBS
# Experimental: To assess the functional effects of IGF2 peptide for the cellular uptake of exogenous lysosomal enzymes, the internalization of IGF2-conjugated rbGAA (vIGF2-rhGAA) was evaluated in L6 rat skeletal muscle myoblasts. Briefly, L6 myoblasts were expanded in T-75 flasks to confluence in DMEM medium containing 10% fetal bovine serum (FBS) at 37 C and a 5% CO2 environment. The cells were harvested via trypsin/EDTA and plated in 6-well tissue culture plates at a cell density of 3×10^5 cells per well and incubated in DMEM/10% […] medium. Two hours prior to the addition of lysosomal enzymes, the spent DMEM 10% FBS medium was replaced with 2.5 ml uptake medium (Ham's F-12/10% FBS/2 mM PIPES, pH 6.7). Unconjugated rhGAA and vIGF2-rhGAA were diluted to 0.5 mg/ml with 50 mM sodium phosphate, pH 6.5/100 mM NaCl/0.05%>Polysorbate-80 and sterilized through a 0.2 μm filter spin device (Costar). Unconjugated rhGAA was added to individual wells at final protein concentrations of 10-200 nM while vIGF2-rhGAA was added at 2-25 nM. To ensure that all wells had the same volume and correct protein concentration, 50 mM sodium phosphate, pH 6.5/100 mM NaCl/0.05% Polysorbate-80 buffer was added so that the total volume of enzyme and buffer was 0.2 ml for each sample.
# IGF-2/CI-MPR, sequence (P11717 41-2491): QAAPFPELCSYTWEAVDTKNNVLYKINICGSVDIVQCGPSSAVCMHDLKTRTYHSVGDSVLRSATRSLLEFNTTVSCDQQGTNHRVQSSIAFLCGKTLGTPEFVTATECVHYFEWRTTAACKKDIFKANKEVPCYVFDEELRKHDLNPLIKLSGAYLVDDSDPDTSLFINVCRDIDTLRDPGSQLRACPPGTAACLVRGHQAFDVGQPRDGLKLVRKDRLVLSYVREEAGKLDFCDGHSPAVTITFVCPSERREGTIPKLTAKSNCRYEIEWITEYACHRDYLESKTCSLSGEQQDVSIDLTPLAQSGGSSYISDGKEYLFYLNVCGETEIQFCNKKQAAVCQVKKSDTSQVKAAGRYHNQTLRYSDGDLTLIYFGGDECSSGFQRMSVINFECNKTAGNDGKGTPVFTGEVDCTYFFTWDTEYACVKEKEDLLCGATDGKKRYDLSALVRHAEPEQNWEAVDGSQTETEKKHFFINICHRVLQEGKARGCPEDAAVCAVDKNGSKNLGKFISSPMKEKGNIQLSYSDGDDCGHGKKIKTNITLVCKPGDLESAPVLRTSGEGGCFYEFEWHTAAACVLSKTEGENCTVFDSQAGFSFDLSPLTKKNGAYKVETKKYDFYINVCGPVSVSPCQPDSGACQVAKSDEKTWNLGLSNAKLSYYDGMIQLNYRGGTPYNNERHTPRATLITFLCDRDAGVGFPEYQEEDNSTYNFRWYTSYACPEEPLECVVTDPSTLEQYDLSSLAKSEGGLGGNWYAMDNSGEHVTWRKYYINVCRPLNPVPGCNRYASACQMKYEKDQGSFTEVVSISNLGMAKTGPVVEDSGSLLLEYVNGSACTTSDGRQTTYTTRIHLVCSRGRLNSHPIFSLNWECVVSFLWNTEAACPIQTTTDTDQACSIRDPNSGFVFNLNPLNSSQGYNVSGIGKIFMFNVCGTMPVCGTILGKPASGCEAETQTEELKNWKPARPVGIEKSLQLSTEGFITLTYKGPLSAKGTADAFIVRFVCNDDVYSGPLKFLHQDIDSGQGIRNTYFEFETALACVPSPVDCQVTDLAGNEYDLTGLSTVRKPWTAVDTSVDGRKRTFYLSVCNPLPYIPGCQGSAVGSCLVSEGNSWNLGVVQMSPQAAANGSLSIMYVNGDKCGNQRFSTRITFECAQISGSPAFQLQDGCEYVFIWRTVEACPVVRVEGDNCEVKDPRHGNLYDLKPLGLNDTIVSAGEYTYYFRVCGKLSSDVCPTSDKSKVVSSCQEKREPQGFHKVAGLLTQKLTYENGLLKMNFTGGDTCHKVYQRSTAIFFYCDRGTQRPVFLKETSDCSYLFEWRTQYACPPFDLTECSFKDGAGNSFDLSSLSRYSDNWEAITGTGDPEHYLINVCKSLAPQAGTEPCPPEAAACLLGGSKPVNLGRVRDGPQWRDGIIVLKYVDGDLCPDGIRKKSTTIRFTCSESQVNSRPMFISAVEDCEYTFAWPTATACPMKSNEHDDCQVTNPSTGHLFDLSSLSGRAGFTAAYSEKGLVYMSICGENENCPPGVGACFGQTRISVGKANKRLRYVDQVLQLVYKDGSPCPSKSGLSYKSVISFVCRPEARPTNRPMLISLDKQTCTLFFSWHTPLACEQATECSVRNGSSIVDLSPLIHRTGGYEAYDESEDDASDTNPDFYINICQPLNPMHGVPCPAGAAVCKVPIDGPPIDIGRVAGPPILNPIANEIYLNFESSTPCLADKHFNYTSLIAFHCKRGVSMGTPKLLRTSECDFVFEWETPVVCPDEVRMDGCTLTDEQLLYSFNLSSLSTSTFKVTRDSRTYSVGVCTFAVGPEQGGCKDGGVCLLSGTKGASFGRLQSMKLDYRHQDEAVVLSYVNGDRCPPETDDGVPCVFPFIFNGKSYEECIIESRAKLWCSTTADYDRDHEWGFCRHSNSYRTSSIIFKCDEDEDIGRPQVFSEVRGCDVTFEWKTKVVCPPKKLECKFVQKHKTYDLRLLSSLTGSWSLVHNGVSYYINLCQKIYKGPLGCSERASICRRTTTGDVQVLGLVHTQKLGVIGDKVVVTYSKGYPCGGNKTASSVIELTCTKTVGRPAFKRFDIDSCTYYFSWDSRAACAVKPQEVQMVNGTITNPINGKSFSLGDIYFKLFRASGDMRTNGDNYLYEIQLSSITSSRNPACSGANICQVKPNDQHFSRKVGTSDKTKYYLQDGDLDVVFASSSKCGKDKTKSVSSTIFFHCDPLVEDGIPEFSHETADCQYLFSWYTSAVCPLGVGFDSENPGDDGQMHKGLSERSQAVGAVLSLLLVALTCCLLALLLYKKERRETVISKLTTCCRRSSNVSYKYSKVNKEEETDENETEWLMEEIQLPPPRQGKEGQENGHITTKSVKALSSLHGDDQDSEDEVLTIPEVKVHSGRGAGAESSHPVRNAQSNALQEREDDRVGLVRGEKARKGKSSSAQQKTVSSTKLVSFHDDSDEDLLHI
compound,measurement,setting,value
rhGAA: Recombinant human acid α-glucosidase,effect of chemical conjugation of variant IGF2 peptide on enzyme activity,[1]; after conjugation of variant IGF2 peptide (data not shown),did not affect enzyme activity
same,enzyme activity after removal of N-glycans,"[1]; deglycosylated with EndoF or EndoH, native conditions (data not shown)",completely active
same,solubility after removal of N-glycans,[2]; deglycosylated with EndoF or EndoH (data not shown),remain soluble
"O=C[C@@H](O)[C@@H](O)[C@H](O)[C@H](O)COP(=O)(O)O [free M6P, mannose 6-phosphate]",Kd,IGF-2/CI-MPR,7000 nM
[Leu27] hIGF-2: human IGF-2 with substitution of leucine for tyrosine at position 27,Kd,IGF-2/CI-MPR,0.05 nM and 0.06 nM
"Myozyme: recombinant human acid α-glucosidase, rhGAA; Genzyme Corp.",clinical effectiveness in Pompe disease,Pompe disease,only moderately effective
WT hIGF-2: wildtype human insulin-like growth factor 2 peptide,Kd,IGF-2/CI-MPR,0.03 to 0.2 nM
same,fold higher affinity for IGF-2/CI-MPR than mono-M6P N-glycan,IGF-2/CI-MPR; relative to mono-M6P N-glycan,"approximately 230,000 fold"
same,fold lower affinity for insulin receptor compared to IGF-2/CI-MPR,insulin receptor,~100 fold
same,fold lower affinity for IGF-1 receptor compared to IGF-2/CI-MPR,IGF-1 receptor,~230 fold
same,safety in clinical trials,[3],shown to be safe
"[del(1-4), Arg6, Leu27, Arg65] IGF-2 [variant IGF2 peptide]",binding affinity to serum IGF binding proteins (IGFBPs),[4],low binding affinity
same,stability of conjugated peptide in acidic buffers,[2]; acidic buffers required for maintaining lysosomal enzyme activities,stable and maintains proper protein structure
